Experimental findings from patent US20020155563A1 (Bristol-Myers Squibb, published 2002) are described below.

The target of the experiment is T1, Grb2 (adapter protein, from Jurkat T cell lysates) (human, UniProt P62993 1-217).
T1 construct: also called adapter protein Grb2
The experiment in a line: pull-down from Jurkat lysates on Talon beads, anti-Grb2 immunoblot. The procedure:
In this Example, experiments were performed to determine if human MIST provided by the present invention associated with signaling proteins critical for cell activation. For this purpose, cell lysates from unstimulated Jurkat T cells, or TCR/CD3-activated Jurkat T cells, were prepared and precipitated with Talon resin beads (Clontech, Palo Alto, Calif.) preloaded with equivalent amounts (5 μg total) of His-MIST fusion proteins. The phosphotyrosine content of precipitated proteins was analyzed by SDS-PAGE followed by Western blotting with an anti-phosphotyrosine specific antibody (4G10, UBI, Hauppague, N.Y.).
More specifically, Jurkat T cells (10⁷/lane) were unstimulated, or were stimulated with monoclonal antibody (MoAb) to the T-cell receptor TCR/CD3 (G19-4-BMS) for 5 minutes at 37° C., and then lysed in 1% NP40-containing lysis buffer and incubated with Talon beads preloaded with equivalent amounts (50 μl of slurry resin) of the indicated His-MIST fusion proteins. Reactants and immunoprecipitates were subjected to SDS-PAGE on 4-20% gradient gels. […] Blot stripping was performed and the membrane was subsequently re-probed with anti-Grb2 MoAb (Santa Cruz Biotechnology, Inc., Santa Cruz, Calif.), anti-Cbl MoAb (Santa Cruz Biotechnology, Inc., Santa Cruz, Calif.), or anti-Vav1 MoAb (Upstate Biotechnology, Inc., Lake Placid, N.Y.).

T1 sequence (P62993 whole entry): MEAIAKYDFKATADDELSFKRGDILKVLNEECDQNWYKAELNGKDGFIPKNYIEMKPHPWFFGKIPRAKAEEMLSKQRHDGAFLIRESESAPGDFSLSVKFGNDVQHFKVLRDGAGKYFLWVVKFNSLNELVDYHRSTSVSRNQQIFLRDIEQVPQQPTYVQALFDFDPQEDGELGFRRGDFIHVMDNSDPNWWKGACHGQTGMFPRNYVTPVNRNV

B1: His-MIST-SH2 (poly-histidine tagged MIST SH2 domain, residues 320-443) (other, not shown: small tags and cut ends)
chain: QHNEWYIGEYSRQAVEEAFMKENKDGSFLVRDCSTKSKEEPYVLAVFYENKVYNVKIRFLERNQQFALGTGLRGDEKFDSVEDIIEHYKNFPIILIDGKDKTGVHRKQCHLTQPLPLTRHLLPL
notes: Recombinant, Sf9 cells; also called His-MIST-SH2 fusion protein
For B1, the binding result was “no binding”.
